From paper PMC12509757
Substitutions are numbered along the chain they refer to. Names and notes keep the numbering of the source.

Assays:
[1] = molecular target: microtubules of HEK293T cells (microtubule fraction), P68363;P07437; test: tubulin/microtubule fractionation of HEK293T lysates (immunoblot); conditions: chain shown with the change;
[2] = molecular target: microtubules polymerized from pig brain tubulin (pig) (UniProt P02550); test: co-sedimentation; in vitro; recombinant His GST protein (1 μM in the legends, 2 μM in the methods) with increasing concentrations of microtubules from pig brain tubulin (or BSA instead) in 1X BRB80, 1 mM DTT, 20 μM paclitaxel, 5 min at room temperature; 100,000g, 15 min, 30 °C through 40% glycerol; immunoblot of supernatant and pellet; apparent Kd, one site-specific binding fit
[3] = molecular target: microtubules of osteoclasts (polymerized from endogenous tubulin) (mouse (endogenous in RAW264.7-derived osteoclasts)) (UniProt P05213); test: co-sedimentation; tubulin/microtubule fractionation of Arhgap10 KO #28 osteoclasts expressing doxycycline-induced myc-ARHGAP10 constructs; immunoblot (Fig. S2)
Sequence of microtubules of osteoclasts (polymerized from endogenous tubulin) (mouse (endogenous in RAW264.7-derived osteoclasts)) (P05213 whole entry, chain 1 of 2): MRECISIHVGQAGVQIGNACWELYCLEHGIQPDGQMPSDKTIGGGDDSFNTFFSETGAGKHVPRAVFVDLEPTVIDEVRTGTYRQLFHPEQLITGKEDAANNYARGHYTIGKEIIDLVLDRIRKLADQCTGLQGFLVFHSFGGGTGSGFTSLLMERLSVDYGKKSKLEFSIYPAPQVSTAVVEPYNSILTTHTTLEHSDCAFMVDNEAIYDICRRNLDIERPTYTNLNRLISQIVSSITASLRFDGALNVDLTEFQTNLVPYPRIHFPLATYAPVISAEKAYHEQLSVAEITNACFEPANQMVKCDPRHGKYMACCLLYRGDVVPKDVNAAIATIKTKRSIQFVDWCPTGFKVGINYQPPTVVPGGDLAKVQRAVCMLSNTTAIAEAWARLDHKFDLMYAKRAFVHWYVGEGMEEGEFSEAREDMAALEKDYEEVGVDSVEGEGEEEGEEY
Sequence of microtubules of osteoclasts (polymerized from endogenous tubulin) (mouse (endogenous in RAW264.7-derived osteoclasts)) (P99024 whole entry, chain 2 of 2, further chain): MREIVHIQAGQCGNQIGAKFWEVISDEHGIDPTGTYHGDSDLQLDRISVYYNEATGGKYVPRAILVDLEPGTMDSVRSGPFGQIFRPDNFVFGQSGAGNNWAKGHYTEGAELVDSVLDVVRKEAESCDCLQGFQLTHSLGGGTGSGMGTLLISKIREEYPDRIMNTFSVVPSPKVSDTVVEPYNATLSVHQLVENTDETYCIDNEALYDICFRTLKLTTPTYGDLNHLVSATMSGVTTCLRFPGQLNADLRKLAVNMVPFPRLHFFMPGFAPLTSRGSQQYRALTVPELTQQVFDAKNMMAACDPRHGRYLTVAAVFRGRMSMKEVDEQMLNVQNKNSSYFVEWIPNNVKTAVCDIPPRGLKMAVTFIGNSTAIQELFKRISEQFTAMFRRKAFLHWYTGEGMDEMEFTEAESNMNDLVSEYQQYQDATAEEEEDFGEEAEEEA

Sequence of microtubules of HEK293T cells (microtubule fraction), P68363;P07437 (chain, as listed by the source, chain 1 of 2): as the sequence (P05213 whole entry, chain 1 of 2) above
Sequence of microtubules of HEK293T cells (microtubule fraction), P68363;P07437 (chain, as listed by the source, chain 2 of 2): as the sequence (P99024 whole entry, chain 2 of 2, further chain) above

B1: myc-tagged BAR-PH (aa 1-388) of ARHGAP10, WT, A1A4S6 K37E; K41E; K44E (protein)
chain: MGLQPLEFSDCYLDSPWFRERIRAHEAELERTNKFIEELIEDGENLIAATKSLSVAQRKFAHSLRDFKFEFIGDAVTDDERCIDASLREFSNFLKNLEEQREIMALSVTETLIKPLEKFRKEQLGAVKEEKKKFDKETEKNYSLIDKHLNLSAKKKDSHLQEADIQVEQNRQHFYELSLEYVCKLQEIQERKKFEFVEPMLSFFQGMFTFYHQGHELAKDFNHYKMELQINIQNTRNRFEGTRSEVEELMNKIRQNPKDHKRASQFTAEGYLYVQEKRPAPFGSSWVKHYCMYRKAAKKFNMIPFEHRSGGKLGDGEVFFLKECTKRHTDSIDRRFCFDIEAADRPGVSLTMQAFSEEERKQWLEALGGKEALSHSFNTAIIPRPEGN
- response ([1]; parent: 60): 32.7 % in MT

B2: His GST BAR-PH (aa 1-388) of ARHGAP10, WT (domain or fragment)
chain: B1 chain with E37K, E41K, E44K
- Kd [2]: 1270 nM

B3: myc-tagged full-length human ARHGAP10, WT (HEK293T), A1A4S6 K37E; K41E; K44E (protein)
chain: MGLQPLEFSDCYLDSPWFRERIRAHEAELERTNKFIEELIEDGENLIAATKSLSVAQRKFAHSLRDFKFEFIGDAVTDDERCIDASLREFSNFLKNLEEQREIMALSVTETLIKPLEKFRKEQLGAVKEEKKKFDKETEKNYSLIDKHLNLSAKKKDSHLQEADIQVEQNRQHFYELSLEYVCKLQEIQERKKFEFVEPMLSFFQGMFTFYHQGHELAKDFNHYKMELQINIQNTRNRFEGTRSEVEELMNKIRQNPKDHKRASQFTAEGYLYVQEKRPAPFGSSWVKHYCMYRKAAKKFNMIPFEHRSGGKLGDGEVFFLKECTKRHTDSIDRRFCFDIEAADRPGVSLTMQAFSEEERKQWLEALGGKEALSHSFNTAIIPRPEGNAQLDKMGFTIIRKCISAVETRGINDQGLYRVVGVSSKVQRLLSMLMDVKTCNEVDLENSADWEVKTITSALKQYLRSLPEPLMTYELHGDFIVPAKSGSPESRVNAIHFLVHKLPEKNKEMLDILVKHLTNVSNHSKQNLMTVANLGVVFGPTLMRPQEETVAALMDLKFQNIVVEILIENHEKIFRTPPDTTFPEPTCLSASPPNAPPRQSKRQGQRTKRPVAVYNLCLELEDGDNPYPSKEDTPTSSLDSLSSPSPVTTAVPGPPGPDKNHLLADGGSFGDWASTIPGQTRSSMVQWLNPQSPTTTSSNSAVTPLSPGSSPFPFSPPATVADKPPESIRSRKARAVYPCEAEHSSELSFEIGAIFEDVQTSREPGWLEGTLNGKRGLIPQNYVKLL
- response ([1]; parent: 59.1): 26 % in MT

B4: myc-tagged full-length ARHGAP10, WT, re-expressed in Arhgap10 KO osteoclasts (natural protein)
chain: B3 chain with E37K, E41K, E44K
- percent associated with the microtubule-containing fraction [3]: 50%
